What all share (assay): co-IP; FFLISA as a1; total Lck signal of all sucrose gradient fractions normalised to CD4 signal, given relative to WT
Experiment [1] concerns the target mouse CD4 Clasp mutant (C444S, C446S) (mouse) (UniProt P06332).
Experiment [2] deals with mouse CD4 H mutant (total ICD helix mutation, aa430–442 to …) (mouse) (UniProt P06332).
In experiment [3] the target is mouse CD4 LL mutant (L437A + L438A) (mouse) (UniProt P06332).
For experiment [4], the target named is mouse CD4 TP mutant (TMD + Palm: G403V, G406L, C418S, C421S) (mouse) (UniProt P06332).
Experiment [5] has as its target mouse CD4 HC mutant (total helix + clasp: aa430–442 replaced, C444S, C446S) (mouse) (UniProt P06332).

In the case of “Lck (Src kinase) (from UniProt P06240 1-509) (enzyme)”, the results for the total CD4–Lck abundance, percent of WT in experiment [1], in experiment [3] and in experiment [4] were 31 % of WT, 49 % of WT and 123 % of WT, respectively. For the same substance, the figures for the CD4−Lck association, percent of WT in experiment [2] and in experiment [5] were 25 % of WT and 14 % of WT, respectively.

(Values after article PMC9333989.)
